The values that follow are results of earlier work, collected in publication PMC6200408.

For this data set, the target named is cubilin (Homo sapiens) (UniProt O60494).
Sequence of UniProt O60494 (O60494 36-3623): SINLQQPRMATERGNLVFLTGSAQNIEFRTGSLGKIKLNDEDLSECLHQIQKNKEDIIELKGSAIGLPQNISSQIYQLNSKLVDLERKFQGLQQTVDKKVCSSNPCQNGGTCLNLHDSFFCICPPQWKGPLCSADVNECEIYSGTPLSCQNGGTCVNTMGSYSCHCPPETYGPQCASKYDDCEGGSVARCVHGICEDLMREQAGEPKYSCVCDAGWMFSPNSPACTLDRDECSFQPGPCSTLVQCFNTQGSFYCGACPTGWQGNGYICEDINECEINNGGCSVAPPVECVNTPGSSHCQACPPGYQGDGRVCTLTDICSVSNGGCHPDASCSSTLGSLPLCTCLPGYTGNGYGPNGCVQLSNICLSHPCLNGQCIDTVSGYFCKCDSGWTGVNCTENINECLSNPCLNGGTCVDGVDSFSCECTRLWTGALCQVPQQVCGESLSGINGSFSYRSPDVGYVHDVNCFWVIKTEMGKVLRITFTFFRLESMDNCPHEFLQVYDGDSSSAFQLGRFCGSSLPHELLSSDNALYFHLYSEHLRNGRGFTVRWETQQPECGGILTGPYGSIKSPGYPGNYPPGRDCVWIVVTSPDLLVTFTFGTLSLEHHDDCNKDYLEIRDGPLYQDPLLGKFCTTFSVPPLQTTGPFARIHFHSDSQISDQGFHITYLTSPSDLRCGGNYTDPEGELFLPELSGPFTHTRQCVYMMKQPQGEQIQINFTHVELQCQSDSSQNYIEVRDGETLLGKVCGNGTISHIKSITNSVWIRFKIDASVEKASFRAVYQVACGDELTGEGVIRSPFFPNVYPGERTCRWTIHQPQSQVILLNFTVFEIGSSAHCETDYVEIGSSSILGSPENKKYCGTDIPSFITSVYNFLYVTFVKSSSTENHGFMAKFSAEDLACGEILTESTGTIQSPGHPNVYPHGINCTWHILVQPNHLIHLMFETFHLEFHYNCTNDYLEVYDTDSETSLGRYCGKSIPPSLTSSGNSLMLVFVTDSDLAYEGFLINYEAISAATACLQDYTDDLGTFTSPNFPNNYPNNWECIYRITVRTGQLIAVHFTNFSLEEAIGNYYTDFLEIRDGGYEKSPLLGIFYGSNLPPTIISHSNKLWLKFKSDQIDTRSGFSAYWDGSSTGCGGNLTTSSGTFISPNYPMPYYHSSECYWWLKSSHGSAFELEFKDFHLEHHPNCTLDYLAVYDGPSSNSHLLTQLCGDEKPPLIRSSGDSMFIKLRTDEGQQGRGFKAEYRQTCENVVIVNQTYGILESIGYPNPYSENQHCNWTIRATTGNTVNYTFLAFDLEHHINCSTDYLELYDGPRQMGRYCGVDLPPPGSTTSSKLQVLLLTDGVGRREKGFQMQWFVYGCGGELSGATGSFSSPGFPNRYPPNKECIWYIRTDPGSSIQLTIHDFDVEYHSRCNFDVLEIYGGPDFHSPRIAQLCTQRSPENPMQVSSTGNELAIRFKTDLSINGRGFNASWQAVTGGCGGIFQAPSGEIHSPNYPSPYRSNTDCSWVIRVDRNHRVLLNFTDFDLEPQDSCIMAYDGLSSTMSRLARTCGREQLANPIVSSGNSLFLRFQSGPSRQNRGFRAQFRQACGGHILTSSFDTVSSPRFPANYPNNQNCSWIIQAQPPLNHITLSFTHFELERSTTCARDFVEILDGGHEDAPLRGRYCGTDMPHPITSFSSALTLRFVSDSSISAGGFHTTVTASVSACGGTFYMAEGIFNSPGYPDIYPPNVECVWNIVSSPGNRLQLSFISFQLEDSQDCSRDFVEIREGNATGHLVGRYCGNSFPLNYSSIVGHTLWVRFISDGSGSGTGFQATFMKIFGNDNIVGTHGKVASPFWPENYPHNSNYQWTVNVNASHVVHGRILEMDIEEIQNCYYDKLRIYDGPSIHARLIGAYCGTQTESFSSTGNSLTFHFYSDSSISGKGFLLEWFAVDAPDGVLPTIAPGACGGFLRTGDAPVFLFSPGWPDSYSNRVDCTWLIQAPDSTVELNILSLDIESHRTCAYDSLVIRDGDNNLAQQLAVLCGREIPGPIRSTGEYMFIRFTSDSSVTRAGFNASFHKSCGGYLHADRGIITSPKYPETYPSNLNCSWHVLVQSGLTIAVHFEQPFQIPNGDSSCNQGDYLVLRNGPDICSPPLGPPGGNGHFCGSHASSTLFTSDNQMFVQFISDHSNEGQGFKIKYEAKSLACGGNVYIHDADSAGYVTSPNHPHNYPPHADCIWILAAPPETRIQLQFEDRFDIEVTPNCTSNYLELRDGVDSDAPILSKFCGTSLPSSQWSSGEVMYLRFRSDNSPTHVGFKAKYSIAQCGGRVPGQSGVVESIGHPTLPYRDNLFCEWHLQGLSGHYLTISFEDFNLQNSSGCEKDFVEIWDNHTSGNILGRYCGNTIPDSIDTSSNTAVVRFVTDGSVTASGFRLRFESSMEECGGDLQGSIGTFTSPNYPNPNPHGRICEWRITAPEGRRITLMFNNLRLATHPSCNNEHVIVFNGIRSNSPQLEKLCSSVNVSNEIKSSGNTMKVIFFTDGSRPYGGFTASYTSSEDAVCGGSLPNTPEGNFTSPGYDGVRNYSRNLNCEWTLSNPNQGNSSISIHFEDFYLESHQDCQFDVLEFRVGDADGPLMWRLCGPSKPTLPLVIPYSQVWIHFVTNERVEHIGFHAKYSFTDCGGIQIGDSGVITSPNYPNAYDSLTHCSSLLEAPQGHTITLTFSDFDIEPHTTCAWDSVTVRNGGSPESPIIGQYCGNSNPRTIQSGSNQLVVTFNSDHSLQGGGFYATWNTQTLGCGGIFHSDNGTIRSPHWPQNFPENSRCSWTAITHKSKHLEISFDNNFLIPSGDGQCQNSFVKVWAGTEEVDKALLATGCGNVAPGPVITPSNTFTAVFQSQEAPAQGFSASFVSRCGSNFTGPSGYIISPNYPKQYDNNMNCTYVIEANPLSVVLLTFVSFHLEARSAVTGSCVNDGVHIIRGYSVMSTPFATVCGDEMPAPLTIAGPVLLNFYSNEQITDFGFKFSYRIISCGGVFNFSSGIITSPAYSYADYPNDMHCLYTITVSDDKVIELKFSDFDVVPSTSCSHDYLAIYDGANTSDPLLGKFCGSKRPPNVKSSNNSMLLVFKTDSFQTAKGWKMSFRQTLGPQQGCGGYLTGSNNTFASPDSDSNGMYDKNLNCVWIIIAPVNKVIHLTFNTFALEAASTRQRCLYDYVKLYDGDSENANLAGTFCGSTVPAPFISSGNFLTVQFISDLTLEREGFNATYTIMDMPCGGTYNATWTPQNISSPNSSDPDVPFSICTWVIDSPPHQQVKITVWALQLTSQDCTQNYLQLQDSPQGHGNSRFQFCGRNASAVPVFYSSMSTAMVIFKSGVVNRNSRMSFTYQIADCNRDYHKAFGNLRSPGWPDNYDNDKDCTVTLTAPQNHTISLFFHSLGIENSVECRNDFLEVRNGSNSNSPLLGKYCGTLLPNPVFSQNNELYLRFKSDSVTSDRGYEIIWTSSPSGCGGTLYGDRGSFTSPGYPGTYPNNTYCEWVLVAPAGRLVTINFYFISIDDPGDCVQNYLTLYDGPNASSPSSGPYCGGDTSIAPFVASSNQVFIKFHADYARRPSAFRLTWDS

On to albumin (from UniProt P02768), for which the Kd (commonly the concentration at which binding is half-saturated) was 0.6 pM.
